Data on 5 substances can be found in PMC12499500.

This assay has as its target drosophila GABAB2 subunit, EM construct (residues 24–790) (Drosophila melanogaster) (UniProt Q9BML6).

Chain of drosophila GABAB2 subunit, EM construct (residues 24–790) (Drosophila melanogaster) (Q9BML6 entry or part of it): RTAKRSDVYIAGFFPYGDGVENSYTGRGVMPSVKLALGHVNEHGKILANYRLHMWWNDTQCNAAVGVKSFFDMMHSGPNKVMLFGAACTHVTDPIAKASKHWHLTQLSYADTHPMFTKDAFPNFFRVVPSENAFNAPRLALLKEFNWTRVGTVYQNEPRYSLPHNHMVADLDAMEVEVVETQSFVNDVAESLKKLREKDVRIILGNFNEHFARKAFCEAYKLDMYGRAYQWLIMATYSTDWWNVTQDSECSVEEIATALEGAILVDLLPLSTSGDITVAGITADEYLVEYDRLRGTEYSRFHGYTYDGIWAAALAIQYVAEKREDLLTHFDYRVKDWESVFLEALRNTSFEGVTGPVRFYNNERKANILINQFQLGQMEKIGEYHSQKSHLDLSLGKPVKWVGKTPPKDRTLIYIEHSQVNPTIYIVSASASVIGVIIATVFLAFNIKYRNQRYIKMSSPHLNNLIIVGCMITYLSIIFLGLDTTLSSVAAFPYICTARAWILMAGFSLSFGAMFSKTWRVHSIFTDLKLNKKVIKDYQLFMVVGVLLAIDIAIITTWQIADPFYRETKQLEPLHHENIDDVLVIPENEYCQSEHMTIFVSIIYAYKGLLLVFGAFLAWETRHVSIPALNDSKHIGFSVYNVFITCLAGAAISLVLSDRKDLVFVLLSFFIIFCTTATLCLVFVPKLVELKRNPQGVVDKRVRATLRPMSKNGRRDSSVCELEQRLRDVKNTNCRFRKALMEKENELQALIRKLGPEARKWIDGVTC

“dGB1^I (V658L) (from UniProt Q9BML7 1-840) (receptor)”: the basal IP1 accumulation (constitutive activity), HEK293 cells co-transfected with the dGB1 mutant and wild-type dGB2, against the wild-type receptor (% increase in IP1 accumulation) turned out to be 50.

The substance “dGB1^I-II (V658L, F659L) (from UniProt Q9BML7 1-840) (receptor)” had a basal IP1 accumulation (constitutive activity), HEK293 cells co-transfected with the dGB1 mutant and wild-type dGB2, against dGB1^III (% increase in IP1 accumulation) of 17.

The substance “dGB1^I-II-III (V658L, F659L, E666A, H566A) (from UniProt Q9BML7 1-840) (receptor)” displayed a basal IP1 accumulation (constitutive activity), HEK293 cells co-transfected with the dGB1 mutant and wild-type dGB2, against dGB1^III (% increase in IP1 accumulation) of 22.

“dGB1^II (F659L) (from UniProt Q9BML7 1-840) (receptor)” had a basal IP1 accumulation (constitutive activity), HEK293 cells co-transfected with the dGB1 mutant and wild-type dGB2, against the wild-type receptor (% increase in IP1 accumulation) of 66.

Turning to “dGB1^III (E666A and H566A) (from UniProt Q9BML7 1-840) (receptor)”, the basal IP1 accumulation (constitutive activity), HEK293 cells co-transfected with the dGB1 mutant and wild-type dGB2, against the wild-type receptor (% increase in IP1 accumulation) is 59.
